Results as given in patent publication US20260132214A1 (JECHO LABORATORIES, published 2026).

Assays:
[1] = target: T1, Glypican 3 Protein, Human, Recombinant (His Tag) (Sino Biological, Cat #10088-H08H) (human, UniProt P51654 25-559); experiment: Octet QKe BLI, IgG on AHC probe, GPC3 (Sino Biological) in solution, 1:1 fit
T1 construct: Bought recombinant protein; also called Hu-GPC3 (10088-H08H); human GPC3; not shown: His tag

[2] = target: T1, Glypican 3 Protein, Human, Recombinant …; experiment: Octet QKe BLI, ratio of KDs against P17 WT

T1 sequence (P51654 25-559 limits assumed): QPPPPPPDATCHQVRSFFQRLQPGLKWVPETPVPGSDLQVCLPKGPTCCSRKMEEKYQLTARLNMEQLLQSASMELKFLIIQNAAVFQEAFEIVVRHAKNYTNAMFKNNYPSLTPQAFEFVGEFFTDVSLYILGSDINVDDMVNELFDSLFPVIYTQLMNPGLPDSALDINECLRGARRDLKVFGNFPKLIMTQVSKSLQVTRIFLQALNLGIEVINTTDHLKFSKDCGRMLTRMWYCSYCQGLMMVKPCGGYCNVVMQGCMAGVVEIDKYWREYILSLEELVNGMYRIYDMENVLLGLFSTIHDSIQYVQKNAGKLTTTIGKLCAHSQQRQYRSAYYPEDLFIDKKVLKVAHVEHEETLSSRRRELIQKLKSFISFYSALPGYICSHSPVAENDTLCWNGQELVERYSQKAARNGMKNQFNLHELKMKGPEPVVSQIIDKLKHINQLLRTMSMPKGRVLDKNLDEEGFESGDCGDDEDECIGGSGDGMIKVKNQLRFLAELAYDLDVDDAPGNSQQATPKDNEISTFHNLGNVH

Binder | Kd [1] | koff [1] | kon [1] | fold lower KD than P17 WT [2]
P17-8E12 IgG (antibody, V domains shown, IgG) VH: not shown VL: QSVLTQPPSVSGAPGQRVTISCTGSSSGYDVHWYQQLPGRAPKLLIYGSNNRPSGVPDRFSGSNSGTSASLAITGLQAEDEADYYCQSYDSSLNAIFGGGTKLTVL | < 1 pM | 1.79e-07 s⁻¹ | 223000 M⁻¹ s⁻¹ | 6000 fold
P17-11F4 IgG (antibody, V domains shown, IgG) VH: EVQLVESGGGLVQPGGSLRLSCAASGFTFKDYAMSWVRQAPGKGLEWVSALSGSGGATYYADSVKGRFTISRDNSKNTLYLQMNSLRAEDTAVYYCAKEMDFRYGWMHYYYGMDVWGQGTTVTVSS VL: QSVLTQPPSVSGAPGQRVTISCTGSSSGYDVHWYQQLPGRAPKLLIYGSNNRPSGVPDRFSGSNSGTSASLAITGLQAEDEADYYCQSYDSSLNAIFGGGTKLTVL | < 1 pM | 1.83e-07 s⁻¹ | 188000 M⁻¹ s⁻¹ | 6000 fold
